Data published in patent US20250263490A1 (VIB VZW, published 2025).

Assays:
[1] = target: T1, recombinant human domain 1-3His6 of the cation-independent mannose-6-phosphate receptor (human, UniProt P11717 41-467); assay: in-tandem competitive BLI, 400 nM
T1 construct: Biotinylated (NHS-PEG4-biotin) for BLI; Glycosylated; also called hDom1-3His6; hCI-M6PRD1-D3
Experimental: (§1) FIGS. 50 & 51. In-tandem competitive BLI of purified anti-CI-M6PR VHHs. In-tandem competitive BLI was performed on an Octet Red96 (FortéBio) instrument in kinetics buffer (1×PBS, 1 mg/ml bovine serum albumin, 0.02% Tween-20 and 0.05% sodium azide). Human CI-M6PR domain₁₋₃His₆ (0.5 mg/mL in 50 mM MES, 150 mM NaCl, pH 6.5) was incubated for 30 minutes at room temperature with EZ-Link™ NHS-PEG4-Biotin (1 mg, Thermo Fischer A39259) and NaHCO₃ (100 mM). Biotinylated human domain₁₋₃His₆ was purified using a Zeba spin desalting Column™ (7K MWCO, 2 mL, Thermo Fischer 89890) and immobilized on Streptavidin SA biosensors (Sartorius) to a signal of 0.5 nm. […] Between assays, biosensors were regenerated by three times 10 s exposure to regeneration buffer (10 mM glycine pH 3). Data were double reference-subtracted and aligned in Octet Data Analysis software v9.0 (FortéBio). Greyscale curves represent double reference-subtracted data.
FIG. 55. […] In-tandem competitive BLI was performed as described in FIG. 50.

[2] = target: T1, recombinant human domain 1-3His6 of the …; assay: in-tandem competitive BLI, biotinylated hDom1-3His6 on SA sensors, purified VHH at 400 nM
Experimental: as §1

[3] = target: T1, recombinant human domain 1-3His6 of the …; assay: in-tandem competitive BLI, biotinylated hDom1-3His6 on SA sensors, periplasmic extract of E. coli (concentration not given)
Experimental: as §1, with “In-tandem competitive BLI of purified anti-CI-M6PR VHHs.” left out

[4] = target: T1, recombinant human domain 1-3His6 of the …; assay: BLI, dissoc pH 5, mean of local fits
Experimental: (§2) FIGS. 58 & 59. […] BLI was performed on an Octet Red96 (FortéBio) instrument in kinetics buffer (0.2 M Na₂HPO₄, 0.1 M Na⁺ citrate, 0.01% bovine serum albumin, 0.002% Tween-20). Biotinylated human domain₁₋₃His₆ was immobilized on Streptavidin SA biosensors (Sartorius) to a signal of 0.6 nm. […] Between assays, biosensors were regenerated by three times 10 s exposure to regeneration buffer (10 mM glycine pH 3). The degree of association and dissociation was measured in δ nm over time (s).
(§3) After loading, the tips were incubated with VHHs serially diluted in pH 7.4 kinetic buffer during the association phase and dissociation was performed at pH 7.4, pH 6.5, pH 6.0, pH 5.5 and pH 5.0. All biosensor tips were then regenerated before analysis of the subsequent VHH. Table 13 summarizes the kinetic parameters retrieved after processing and curve fitting of the BLI measurements. When both association and dissociation were performed at pH 7.4, a global fit was performed according to the 1:1 binding model of which the resulting affinity constants (KD), association (kₒₙ) and dissociation rate constants (koff) are shown. For measurements with association at pH 7.4 and dissociation at pH 6.5, 6.0, 5.5 and 5.0, the depicted dissociation rate constants are an average of the parameters determined by local curve fitting of the dissociation of 200, 100 and 50 nM VHH.

[5] = target: T1, recombinant human domain 1-3His6 of the …; assay: BLI, dissoc pH 6, mean of local fits
Experimental: as §2, §3

[6] = target: T1, recombinant human domain 1-3His6 of the …; assay: BLI, global 1:1 fit, pH 7.4
Experimental: as §2, §3

[7] = target: T1, recombinant human domain 1-3His6 of the …; assay: BLI, dissoc pH 6.5, mean of local fits
Experimental: as §2, §3

[8] = target: T1, recombinant human domain 1-3His6 of the …; assay: BLI, dissoc pH 5.5, mean of local fits
Experimental: as §2, §3

B1: humanized VHH8 variant VHH8 h4 (VHH)
VHH: DVQLVESGGGLVQPGGSLRLSCEASGRTFNTYNWGWFRQAPGKEREFVAAIRWSSSKTSYADSVKGRFTISRDNSKNTVYLQMNSLRPEDTAVYYCAASIVDFTTNPSHFGSWGQGTLVTVSS
notes: made in E. coli
binding result [1]: binds

B2: humanized VHH8 variant VHH8 h5 (VHH)
VHH: DVQLVESGGGLVQAGGSLRLSCEASGRTFNTYNWGWFRQAPGKEREFVAAIRWSSSKTSYADSVKGRFTISRDNSKNTVYLQMNSLRPEDTAVYYCAASIVDFTTNPSHFGSWGQGTLVTVSS
notes: made in E. coli
binding result [1]: binds

B3: anti-CI-M6PR VHH 1H37 (VHH)
VHH: QVQLQESGGGLVQPGGSLRLTCAPSGRTYSTYWMAWFRQAPGKEREIVARINWSDGSTFYTESVKGRFTISGDNAKNTVYLQMTNLKPEDTAVYYCLARTVVSLDDYWGQGTQVTVSS
binding result [2]: binds

B4: anti-CI-M6PR VHH 2H74 (VHH)
VHH: QVQLQESGGGLVQAGGSLRLTCAPSGRTYSTYWMAWFRQAPGKEREIVARINWSDGSTFYTESVKGRFTISGDNAKNTVYLQMTNLKPEDTAVYYCLARTVVSLDDYWGQGTQVTVSS
binding result [3]: binds

B5: anti-CI-M6PR VHH 2H79 (VHH)
VHH: QVQLQESGGGQVQAGDSLGLSCAASGGAFSTYHMGWFRQAPGKQRELVAAITRGGSSSTKYVDSVKGRFTISRDNAKNTMYLQMNSLQPDDTAVYYCAASPQGKWNALVGGTPDYWGQGTQVTVSS
binding result [3]: binds

B6: anti-CI-M6PR VHH 1H21 (VHH)
VHH: QVQLQESGGGLVQAGGSLRLSCVASGRTFSTLHMGWFHQAPGKERELVAAITRSGDTYYADFVKGRFTISRDNAKNTVYLQMISLKPEDTAVYYCAATGPGGWARLRAHEYDYWGQGTQVTVSS
binding result [2]: binds

B7: anti-CI-M6PR VHH 1H52 (VHH)
VHH: QVQLQESGGGLVQPGGSLRLSCTASGFTWDSYVIGWFRQAPGKGREGVSCLDVDDGSIYYHDSAKGRFSISRDNAKNTVYLQMNSLKPEDTAVYYCAAVNRASMRFRRCLQVLRYDYWGQGTQVTVSS
notes: made in E. coli WK6, His-tag purified
koff [4]: 0.2 s⁻¹ | koff [5]: 0.03 s⁻¹ | Kd [6]: 31 nM | koff [6]: 0.032 s⁻¹ | kon [6]: 1e+06 M⁻¹ s⁻¹ | koff [7]: 0.067 s⁻¹ | koff [8]: 0.051 s⁻¹
